# Data published in IntAct's records for PubMed 12128212.
# B1: Protein daughter of sevenless (Drosophila melanogaster (Fruit fly)), Q9VZZ9 (parent)
# chain: MDRTFYEGWLIKSPPTKRIWRARWRRRYFTLKQGEIPEQFCLEYYTDHNCRKLKGVIDLDQCEQVDCGLRLENRKQKFQYMFDIKTPKRTYYLAAETEADMRDWVNCICQVCHLHDTKQSNELPLGAVGADENRTQHTSSSGGLSNSTQNTTTTSLHSSAGTTAPQASVPNAGGSAQLRRPAVIEEQPMPSNAGNNNSDSVYVNTEYSNRETMLCDANFDQQELLSAAQQQPPPSPATALYLNHSALIQAQAAAAAAEQLQQQQQQAARLAVSANGVVRKLPEHLVLTQQTLAEAAAQQHSSVQASPALSTASGPYIPISECFSGSPRFLPGVPLPGADLAIPNNPTTPLNNLDPKFYDTPRSHNNIGLNLTNDQSYSPKITNLSLQQLANNNASKQRSDSDSESVFTDDDEWAHPLPLRENVDRSTRPSDSSIENESFVLTYSQRFSKMPEEGGAIVPPAEKSSKLAGAASLPEAGDQGTLDKLAKVLKNKNNLILDFKENEKIPRDLPQLSDTENTSPAIVARRNAHSAFIEESYDIPRSHQQPYYNVNQLLGERPVTSPHNSNPIAASTPNLMAADLGAVAAISAAANPGLMGEAQAVASSPTSARTLPRHCYTNAAPTKMEGNVFRYDFMEQADCPPVNRKLKPKVAGGLPVVEDKPPEEFPAKPPVGVDQLTNKLGAAQLQQPIGPPSVDRKCKPNAYKLGNSATMSPATRRSSGAPLSMVLPHETDVHSPAAANAFFHETRTLPRQQHRHHPNSPGSMSVQHQRTASAAAAMMSLTAAAAPKQQAAAQTEHKLQYFDLDVTNKPPLLNRSSMSVGNLYSQGGNGASGMRFAGVEAGGARAPVPSSVVYRSVDFVKTEAFKRIREERESSGNK
# Variants of: B1
# Settings: with grap_drome drk
row,effect of a mutation on the interaction,Variant
1,disrupting interaction strength,R644K;R696K
2,decreasing interaction strength,R644K
3,decreasing interaction strength,R696K

# Variants of: B1
# Settings: with grap_drome drk
# Remark: another data set of the same source
row,effect of a mutation on the interaction,Variant
1,disrupting interaction strength,R644K;R696K
